In the DeepSol protein solubility set:

assay: soluble on expression in E. coli; label from the status in PepcDB or PDB records

Row | Sequence | soluble on expression in E. coli
1 | MAHHHHHHMASSALDEMKEQMLRRWKEDQKKIDDLRKKHGHEKLCDATIDAVYGGMRGITGLVYEPSLLDPAEGIRFRGLTILECQEMLPKAPGGKEPLPEAMFWLLMTGEVPTEEQVRGLNAELHRRADPEAIAAAQKAIAALPRNAHPMTAFSVGVLALQSYSKFAAAYAAGKSNKKTYWEYALEDSLDMLARTPAVVAMICNRETKGQVELAAPSNSDLDWAANFAKMMGYQDEEFWECMRLYLSVHADHEGGNVSAHTTTLVASALSDPYLAFSAGLNGLAGPLHGLANQEVLNYLLSMQERVKADGVNMHDEAALEKALSNYTWELLNSGQVVPGYGHAVLRKVDPRYTCLRNFCLRHKFDDDLFKLVNTIYLIMPGILKEHGKTKNPYPNVDAHSGVLLQHYGMTNQNCYPVLFGLSRQMGVLAGVVWDRLQGRPLERPKSITTEMLAKKYLCNSL | not soluble
2 | MGSDKIHHHHHHLISTANITMQFGPEPLFENISAKFGNGNRYGLIGANGCGKSTFMKILSGALAPTSGNVSITPGLKVGTLSQDQFAFEQYTVIDAVIMGDVQLWKVKQERDAIYAKADMTEEDGMRVGDLESEFAEMDGYSAESRAGEILIEAGIEESFHYGPMSQVAPGWKLRVLLAQALFANPDILLLDEPTNNLDIHTISWLETELNKRKCTMIIISHDRHFLNAVCTHMADIDYGELRIYPGNYEYFLAQSSLLREQLLAGNAKKSAEIEELQDFVNRFGANASKAKQASSRAKRMDKIKLDEVKSSSRITPSIRFAAGKKMHRQALVLENLGHGFDGELLFQGGDLILEAGAKLAIIGENGVGKTTLLRCLVNELIHNEGTIKWSENASIGYCPQDSTSDFDNDLTIMEWMDQWRQPKHNDLMVRAMLGRLLFTEDDANKKAKNCSGGEKNRLIFGKLMMQDINVIIMDEPTNHMDMEAIEALNNALKDFEGTLIFVSHDREFVSSLATRIIDIKDKKLINFQGTFDEYLSSQADIMARQHA | not soluble
3 | MRDSPTHKEQRAQNTMSDQMPFPFNNFTYFFTLFSKFFSSFHHCTCSLSVSRQYLALDGIYHPLRAAFPNNSTLRRHFTKNRTPRHTGFSPSMTSCSKEHRQGTAPKLPSPNYNSGTEGTRFQI | not soluble
4 | GPGSMRLTSRGSHNSSQVVYLLDTREFITDCSTVRQVTHFAHVHRLGSPLWLSCELASALGLTLRYMCSPLNIWSPLTGESFVQLASSPALARDTLYKFPINKEFLAPGGVLPHNSGEGSLMALSAAASSDGKPRWYNIPKDVSHLFVLPKNLCQLSVPVHRGGFRPRPFNLWVSTVIAVRMGGLAEAVKTVRTPSSFMTLVNADQMYPSALLAEKELECVLLMRKEGRLGEM | not soluble
5 | MWGETFDDFENDEGEMAMAKQNLIAEPARADFTFAKLPLGIQPVDFMKTHFAETAGKSMQFRKGTTTLAFVYEPATPADKGGIIVAVDSRASSGEYISSKSVMKILDIGDRMVATMAGGAADCQFWTRIVAKYCTLYELREKTSITVSAASKYFANTLYGYRGQGLSVGSMVAGYDKKGPQIFKVDSEGDRCQLKVCSVGSGSLNAYGILDNHYKPKMTDDEARKLGLRAIMHATYRDSGSGGVCNLCHITPTEKIRLPPMDVSKLWYEFADELGRDITYNPVE | soluble
6 | MSLHITTKRLLIREFEFKDWQAVYEYTSDSNVMKYIPEGVFTEEDAKAFVNKNKGDNAEKFPVILRDEDCLIGHIVFYKYFGEHTYEIGWVFNPNYQNKGYASEAAQAILEYGFKEMNLHRIIATCQPENIPSYRVMKKIGMRREGFFKKCIPKGNEWWDEYYYAILEEEWNEGHHHHHH | soluble
7 | MSLRQGKIRVVLADDHTMFRQGLKEMLLTGGDIEVVGEAEDGRAALEEIRRHKPDVAILDVEMPEMDAREVMVRLPEASPHTRAVIVTVFAEARLARELVRLGARAYVTKNATLQELLAAVRSAARAAGGDNVLLAVPRGLIEGSGGPEGCELSERELEILLLVARGLSNRQVASELHLAEATVKRHLANVYAKLNVGSRGEAVRKALSKGWFTSRDVTEGHHHHHH | soluble
8 | MLFSLKYLGMTLVEQPKGEELSAAAIKRIVATAKASGKKLQKVTLKVSPRGIILTDNLTNQLIENVSIYRISYCTADKMHDKVFAYIAQSQHNQSLECHAFLCTKRKMAQAVTLTVAQAFKVAFEFWQVSKEEKEKRDKASQEGGDVLGARQDCTPPLKSLVATGNLLDLEETAKAPLSTVSANTTNMDEVPRPQALSGSSVVWELDDGLDEAFSRLAQSRTNPQVLDTGLTAQDMHYAQCLSPVDWDKPDSSGTEQDDLFSF | soluble
9 | MAHHHHHHLRCAPSKLFRATPLLRVWAAEEDDASAPRTTFRNVRPGRLLRLWRQMRHRAWMLYAWDEEWVSPMQEGYLHQQRLEQVCFAPLSAYGVVPGSYCDPLLYNTKRTSPFRWHVANVQGDVVGHWYMDADELFRIEDWQPREPDDPLEMFPRPPPMLLRWDESVDEHGNRAFRYRYHYDMMGPTGKWEAYPRCPFSHLYHGGPDQHGRAEGYGFQQGHLLRCDEAEEEVLRRIMEGEDREWEMVKRTEAVQEPWSYPGKIRPRDFEGAVEHAKARYRERVRHGKETDPSEDPEYDLVQASEYVEPRDGRRAEWRHLWASGRKPGESLPFHVAFNDGLCFEGNEGGPPAHPAAHYEATPKGAPYGRYEDADAAAARAAEAAHNAACEQSLSEAMARHRRLFGDTSGAPSGPKAPLPTGCRPMRCAPGPPLPSGRSRSSGARAVGSGPVCGAGARDGESEGEGRGGEAPLGYGARACSWRRREGWV | soluble
10 | MIHTYEEAIGWIHSRLKFGIKPGLERMRWMLEELGNPERHIKCVHLAGTNGKGSTLTYMRYMLEDAKYKVGTFTSPYIETFNERISVNGTPIADEEITELVKMVKPVVEKLDETDLGEATEFEIITVMAICYFGKVNFCDVVLFETGLGGRFDSTNVIHPVLTIITNIGHDHMHILGNTLGEIAYEKAGIIKSGVPVITGVQDEEALQVIQKVAKENRANLYEMGNHFTALHKQSSENGEQFDFTCPFASFEDVRIAMKGSHQVGNAALALMAVMYVKTYLSFLIEEEEIRTGLQEAYWVGRFEKLQSNPDIIIDGAHNPEGIESLVKTVESHYKDKNVIVLFTALGDKQLHNMVGQLETIADEIIFTTFAFDRAISAGELASYAKKESKLVFENWKEAIDTKVEMIGENDVFIITGSLYFISEVRKYIREKN | not soluble
11 | MGYAVLHLEKAKGTDSRMSAHIERTVHPKNADRTRTHLNRELVQFPEGVRNRTQAIAQRIETAGIRRKVSANQVKAIRILLTGSNKDMKQMEAEGRIEDWCNDSLKWIRETYGEQNLVSAVLHMDEKTPHIHATVIPIMTGERRKAGQEEQNGKKKYRKKNPQDVRLCADDVMARHRLKHYQDTYAQAMNKYGLQRGVDGSLAKHISTMQYYKQLVEQQDSLQENIENLLGLEEEAMKKLKQVKGEINVQKMKGAAVNATTAIADGVSSLFGGSKVKRLEAENENLKRNIVNLQKQVQAEQREQTKMENRHSSEINRVDRSYRQKIAEYDNRLELIDTYFPIVKELIPIAEQCREVGFTEELTRRIVSLQPVEFKGRLYSKEYKEKFRTEHSTATVERTPQEKGKFRLCIDGIPILDWFRKKFQEIKEKLGLNTPVENKQRKGLKILEHHHHHH | not soluble
12 | GPGSMPRCTTLPLSSFPSLLTFMTVCAASSSPPLPRFRVAHLCRRGKDCLALARSLSLPIVEGAEGGGGRCGCSEWRREGAGERCSVFYLSLPASNFMCINFASPLHLRSPGARHIDVQDVPMERNTLQVVASAVNAEALSGAEDHACHASPVHRVYRLRDACTTLQLILLAYKYRRCSAHSMTVAMFVEACAYDLVQGVRVLESAPLSSSPGHDSSGDAIATLEAPWFYIGSEAGGDVRVYLLLPTYADYFLDYTMHWARVAYSEMARQYVGHSLIAKLQTVGGGWASLHRADKSLACALQLHAVAQAVFDEDVVRKCRLFIGWAHLWNSEPAKALEVFYAELAAARRHGDTIQERRCLHAIQNAEHNPRLAPGGAHTGHYQLVNLWWRALA | soluble
13 | MAHHHHHHMIDDVRICHLVLQDVKERLPLYESRLEAVNNSHVVISCWNESVKAFVPVPVAEDVEFTSDVLHEVVSLVDGLRQLGCTDFFVVFVDSGGTLSFYHVDTLRLLQSGRSGSS | not soluble
14 | GPGSMPKSKRAKIVPLTKTQAKTREDKDKLIERIREALEDYSDVYTFQLHNIRTNILQQIREERAGDSRIFLGNNKVMMIAIGRDEESAQRQNLHKLSPFLTGLCGLLFTNLSKKEVKEYFATVGAPVYARTGQTATESLVLKGGPLPQFPHSMFDHLAKLGLPIKLDRGVIVLLQDTTVCEPGDTLSAEAAQLLKLFGVQSAKFKMDLTAHWTSGVAKKVSSSASKRSEK | soluble
15 | NQVLSGVSFQLMPGEVHALMGENGAGKSTLMNILTGLHKADKGQISINGNETYFSNPKEAEQHGIAFIHQELNIWPEMTVLENLFIGKEISSKLGVLQTRKMKALAKEQFDKLSVSLSLDQEAGECSVGQQQMIEIAKALMTNAEVIIMDEPTAALTEREISKLFEVITALKKNGVSIVYISHRMEEIFAICDRITIMRDGKTVDTTNISETDFDEVVKKMVGRELTERYPKRTPSLGDKVFEVKNASVKGSFEDVSFYVRSGEIVGVSGLMGAGRTEMMRALFGVDRLDTGEIWIAGKKTAIKNPQEAVKKGLGFITENRKDEGLLLDTSIRENIALPNLSSFSPKGLIDHKREAEFVDLLIKRLTIKTASPETHARHLSGGNQQKVVIAKWIGIGPKVLILDEPTRGVDVGAKREIYTLMNELTERGVAIIMVSSELPEILGMSDRIIVVHEGRISGEIHAREATQERIMTLATGGR | not soluble
16 | MGSDKIHHHHHHMTPIRLIIVGLGARALTWIKVARANPDVEIVALCDPDPSARSAAARQFPKLPIGKDITDIIGTAADAVLLATPPRGREAQIEACCTHGLAVLAEKPLSDSVVTAARFVEMAEQAGVPLIVGLNFRYLAVTQEKRRLLADGAIGTPEFGRFIYERWRDGTQDWLNSYPLTMDHPMLWEQSIHHFDLMRYVHGVEPEYVQAHTANPSWTMYEGDTNVSALIGFKGGFHITYQGTWQSGHEPMNFNWRTDGSEGIVVQRAMFGDLAWAKRMEPELTPVDLPAHEAWITDAAALLDRFVAILRGATPECTGRDHLQSLFMLEACILASARRATVTIDEVRALTTPKETS | not soluble
17 | MNLPLEYHPFPAILPKSATVAMLGTFPPTSEKRCMEFHYPNFQNDMWRIMGLLFYKNLDHFRVDQEKRFDPVRIEAFLREKGIALCSSAQTAIRLKGNASDKDLKIIDAIDMQALLTELPQLKWLFTTGGLATETLLSLLPEKSKLPKTNEWINYPYTTDRTLYLYRLPSTSRAYPLSLAKKVEAYRQFFVRVGLEHHHHHH | not soluble
18 | MGSSHHHHHHSSGRENLYFQGMNDSIHGGLRVCQSTPLVQLQDRGRFGCRHLGVTQGGALDWLSMGWANWLLGNPLDAAVIEIALGGFVADCRADGWLALAGGDLGATLDGQPLPAWGAFAVRGGQRLAFAHPRQGARAYLAAPGGFAGERQLGSLATVAREGLGGPRADGKALAAGDSLGWLADGARPRALPLPSERIMDCTGEARLELILGAQIGDFPAMSLFDAFNGDWQVDTRADRMGVRLLGPRLECRQQSMISEGIALGAVQVPPDGQPIVLLNDRQTIGGYPRLGALAPLALARLAQCLPGQRVRLLPTVQEAAHREHRRLLAAWDA | soluble
19 | MGSDKIHHHHHHMAAVLLTGHGGPEKLVYRTDVKVPSPDPGEVLVEVSACGMNNTDVWVRQGAYGTEEDAAAVSTWRRQGNTLVFPRIQGTDTVGTIVSVGEGVSPERIGERVMVDFSIYNRDDDSLADIDYMGHGRDGGYAEYQTVPAENAHVVDTDMSDVELATFCCAYLTGEQMLERAGLKAGERVLVTGASGGVGSGIVQLARARGAIPYAVVGKGKEQAVLDIGAEAVITRGVADLPRAVAEVTGGQPIDVVADLVGGAIFNDLLRILRPEGRYTTAGAIAGPVVQLDLRTMYLKQLQLHGSSQGTRADFRRIVGYIEAKKIRPLVGGVYRLSDFHRAQADFVAKDFVGKLVVVPDAIAERQA | not soluble
